Data on 3 molecules can be found in article doi:10.1101/2025.04.16.649111, “Nanobinders for Synaptotagmin 1 enable the analysis of synaptic vesicle dynamics in rodent and human models” (bioRxiv, 2025).

Details in all cases: one partner purified
The target of assay [1] is T1, endogenous Synaptotagmin 1 of mouse brain and mouse neurons (mouse (endogenous in brain and primary …, UniProt P46096)).
T1 construct: Synaptotagmin 1, mouse, endogenous whole protein (in brain extract for the immunoprecipitation, on living neurons for the uptake); also called endogenous Syt1; Syt1; source: endogenous, WT mouse brain lysate; endogenous, mouse primary neurons
In words: co-IP; immunoprecipitation: GFP-tagged nanobody pre-loaded on GFP Selector beads, incubated 1 h at 4 °C with pre-cleared lysate of WT or Syt1 KO mouse brain; blot with Syt1 cytoplasmic antibody.

The target in assay [2] is T2, endogenous Synaptotagmin 1 of primary hippocampal neurons (rat) (rat (endogenous in hippocampal neurons), UniProt P21707).
T2 construct: Synaptotagmin 1, endogenous in primary hippocampal neurons; the spectra were searched against the Rattus norvegicus proteome (UP000234681) and neurons were in most cases from Wistar pups; also called Syt1; Syt1-lum; source: endogenous, primary hippocampal neurons (living cells)
Briefly: proximity labelling; NbLumSyt1-APEX2 taken up live by primary neurons (30 min with biotin-phenol), 1 mM H2O2 for 30 s; streptavidin bead enrichment, LC-MS/MS; controls NbALFA-APEX2 or no nanobody.

Assay [3] has as its target T3, endogenous human Synaptotagmin 1 in human iPSC-derived hypothalamic-like neurons (human, UniProt P21579).
T3 construct: Synaptotagmin 1, human, endogenous; also called human Syt1; source: endogenous, human iPSC-derived hypothalamic neurons (living cells)
Briefly: immunostaining of cells or tissue; live uptake in 80-day old human iPSC-derived hypothalamic neurons: surface pool blocked with 4.85 µM unlabeled nanobody, then 5.5 µM pHluorin-labelled nanobody with 30 mM KCl or 1 µM TTX, 20 min at 37 °C; fixed, anti-GFP and anti-Syt1.

T1 sequence (P46096 whole entry): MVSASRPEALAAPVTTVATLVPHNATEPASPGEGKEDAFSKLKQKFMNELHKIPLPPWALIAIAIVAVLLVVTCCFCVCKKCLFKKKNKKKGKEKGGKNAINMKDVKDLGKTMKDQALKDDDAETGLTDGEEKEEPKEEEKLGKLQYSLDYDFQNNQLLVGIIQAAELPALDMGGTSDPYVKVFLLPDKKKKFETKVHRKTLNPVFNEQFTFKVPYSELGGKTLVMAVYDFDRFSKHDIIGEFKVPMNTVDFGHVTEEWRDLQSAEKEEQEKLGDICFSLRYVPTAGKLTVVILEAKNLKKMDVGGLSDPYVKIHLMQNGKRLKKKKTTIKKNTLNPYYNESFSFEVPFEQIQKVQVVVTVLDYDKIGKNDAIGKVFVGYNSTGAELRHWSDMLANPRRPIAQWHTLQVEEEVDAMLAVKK
T2 sequence (P21707 whole entry): as the sequence (P46096 whole entry) above, with R6H counted along it
T3 sequence (P21579 whole entry): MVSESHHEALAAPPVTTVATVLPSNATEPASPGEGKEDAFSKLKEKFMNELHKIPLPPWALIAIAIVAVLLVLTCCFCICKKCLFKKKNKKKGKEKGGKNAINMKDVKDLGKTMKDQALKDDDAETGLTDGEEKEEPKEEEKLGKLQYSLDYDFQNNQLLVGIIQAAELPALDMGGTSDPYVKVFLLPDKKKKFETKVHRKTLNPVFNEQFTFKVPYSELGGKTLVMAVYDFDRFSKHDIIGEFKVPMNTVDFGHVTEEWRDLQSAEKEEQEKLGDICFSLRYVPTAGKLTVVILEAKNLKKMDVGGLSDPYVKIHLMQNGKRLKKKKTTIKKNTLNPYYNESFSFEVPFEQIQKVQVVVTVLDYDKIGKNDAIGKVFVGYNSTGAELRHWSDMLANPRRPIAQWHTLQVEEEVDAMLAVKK

B1: NbLumSyt1 fused to a GFP-tag (VHH)
VHH: EVQLVESGGGLVQTGGSLRLSCTASGSIGSISVMGWYRQVPGTQYELVAGISRGGSTWYEDSVKGRFTISRDNAKNTLYLQMNSLKPEDTGMYYCAGGDYSDRLGSWGQGTQVTVSS
notes: as the VHH of m1: NbLumSyt1, clone 1F12; PDB 8B8I chain A; Held on GFP Selector beads in the immunoprecipitation; detected with anti-GFP in the uptake assay; also called GFP tagged Nanobody; GFP-tagged nanobody; source: E. coli NEB SHuffle Express T7, purified (Ni-NTA, protease elution, MonoQ)
For the molecule B1, the binding result in assay [1] is “binds”.

B2: NbLumSyt1-APEX2 (VHH)
VHH: B1 VHH
notes: as the VHH of m1: NbLumSyt1, clone 1F12; PDB 8B8I chain A; also called Nb-APEX2
With B2, in assay [2], the binding result is “binds”.

B3: NbLumSyt1-pHluorin (VHH)
VHH: B1 VHH
notes: as the VHH of m1: NbLumSyt1, clone 1F12; PDB 8B8I chain A; Detected with anti-GFP after fixation in the human neuron uptake; also called pHluorin-labelled Syt1 nanobody; Syt1 pHluorin Nb; source: E. coli NEB SHuffle Express T7, purified (Ni-NTA, protease elution, MonoQ)
With B3, in assay [3], the binding result is on record as “binds”.
